Data on 6 molecules can be found in US20240168030A1, “DIRECT FLUORESCENT GLYCAN LABELING” (BIO-TECHNE CORPORATION, priority 2019, published 2024).

Holding throughout (assay type): biochemical
A short description of data set [1]: Enzymatic synthesis of Le^x and sLe^x by glycan gel electrophoresis, substrate G0. The procedure:
(§1) FIG. 21A. Schematic view of the enzymatic steps for Le^X and sLe^X synthesis on the antibody glycan G0. The glycan short names follow that of FIG. 10. FIG. 21B Kinetic comparison of galactosylation on G0 by B4GalT1, sialyation on G2 by ST3Gal4 and ST6Gal1, and fucosylation on A2[3] by FUT7. The reaction time for B4GalT1 was 10 minutes. The reaction time for ST3Gal4, FUT7 and ST6Gal1 was 5 hours. In each case, the labeling enzyme was subject to a 3-fold serial dilution starting from 1 μg each of B4GalT1, FUT7 and ST6Gal1, and 3 μg ST3Gal4. FIG. 21C. […] Reaction time for both cases was 20 minutes. […] FIG. 21D. […] Reaction time for both cases was 20 minutes.
(§2) For a typical labeling reaction, 1 μg to 5 μg target protein was mixed with 0.2 nmol fluorophore-conjugated GDP-fucose and 0.2 μg of a fucosyltransferase in 30μL 25 mM Tris pH 7.5, 10 mM MnCl2. The mixture was incubated at 37° C. for 30 minutes. […] To release labeled glycans from a glycoprotein, the sample was first denatured by heating at 95° C. for two minutes in the presence of 0.5% SDS and 80 mM β-mercaptoethanol and then renatured with 1% Triton X-100, and finally treated with PNGase F at 10:1 mass ratio at 37° C. for 20 minutes. To release glycans from antibody, a sample was directly treated with Endo S at 10:1 mass ratio at 37° C. for 20 minutes. All samples were separated by sodium dodecyl sulfate—polyacrylamide gel electrophoresis (SDS-PAGE) at […]. For separating labeled glycoproteins and antibodies, 4-20% gradient SDS gel was used. For separating labeled free glycans, 15% or 17% gel was used. After separation, all gels were imaged using a FluorChem M imager (ProteinSimple, Bio-Techne, Minneapolis, MN). For glycoproteins samples, the gel was also imaged with traditional methods such as silver staining or trichloroethanol (TCE) staining.
(§3) For sLe^x synthesis, G0 was first converted to G2 by B4GalT1, then converted to A2[3] by ST3Gal4, and finally converted to A2[3]F2 (carrier of sLe^x) by FUT7 (FIG. 21A). […]

The nature of data set [2]: Enzymatic synthesis of sLe^x by glycan gel electrophoresis, substrate A2[3]. To be noted: for Activity based on reaction completion: completed product sLe^x. The procedure:
as §1, §2, §3

Data set [3] relates to fetal bovine fetuin and asialofetuin. The data set is described as follows: Labeling of fetuin and asialofetuin by fucosyltransferases with GDP-Cy5-Fuc. As to conditions: GDP-Cy5-Fuc donor, FIG. 9A. The procedure:
FIG. 9A-FIG. 9B show exemplary results of probing substrate glycans of various fucosyltransferases on fetuin and asialofetuin. FIG. 9A. Probing substrate glycans of fucosyltransferases with guanosine 5′-diphosphate activated Cy5 conjugated fucose (GDP-Cy5-Fuc). […] FUT9 labeled itself (indicated by an arrow in the gel). FIG. 9B. Tolerance of Alexa-Fluor®555 (555), Alexa-Fluor®488 (488), and Cy5 by the indicated fucosyltransferases. All reactions were incubated at 37° C. for 30 minutes and then separated on SDS-PAGE and imaged with silver staining (upper panels) and fluorescent imager (lower panels). M, molecular marker.
For a typical labeling reaction, 1 μg to 5 μg target protein was mixed with 0.2 nmol GDP-f-Fuc and 0.2 μg of a fucosyltransferase in 30 μL buffer of 25 mM Tris pH 7.5, 10 mM MnCl2. The mixture was incubated at 37° C. for 30 minutes. The reaction was then separated by sodium dodecyl sulfate—polyacrylamide gel electrophoresis (SDS-PAGE) and the gel was directly imaged using a fluorescent imager FluorChem M ProteinSimple, Bio-Techne, Minneapolis, MN), followed by imaging with traditional protein imaging methods such as silver staining or trichloroethanol (TCE) staining.
The labeled samples were then separated on SDS-PAGE, followed by traditional protein gel imaging and fluorescent imaging.

The nature of data set [4]: Enzymatic synthesis of Le^x and sLe^x by glycan gel electrophoresis, substrate G2. As to conditions: substrate G2, completed product Le^x. The procedure: as §1, §2
For sLe^x synthesis, G0 was first converted to G2 by B4GalT1, then converted to A2[3] by ST3Gal4, and finally converted to A2[3]F2 (carrier of sLe^x) by FUT7 (FIG. 21A). During these steps, different amounts of enzymes, and multiple reaction times were applied to reveal the intermediate products.
Intermediate products are signs for the progress of each enzymatic step.

The nature of data set [5]: Le^a synthesis from FUT8-labeled G0 (G0f) quantified with response curve. As to conditions: for Completion of reaction in Le^a synthesis: FIG. 22B. The procedure:
FIG. 22A-FIG. 22C show quantification of Le^a and its intermediate products. […] Lane 1 is labeled G0 (G0f) and lane 2 is labeled G2 (G2f). Lane 3 to 5 contain the intermediate reactions of converting G0f to the final Le^a carrying glycan A1 G1[3]F1f with the indicated enzymes. Lane 6 to lane 13 is a 2-fold serial dilution of G0f starting from 25 ng (19 pmol). The exposure time is 240 ms. The mass inputs of the serial dilution and all the band intensities were listed below the picture. FIG. 22C. The response curve of the serial dilution in FIG. 22B. The slope of the line represents the signal to mass ratio of G0f, which allows the quantification of the bands from lanes 1 to 5.
To evaluate the quantitative aspects of the glycan electrophoresis described in this article, a series of enzymatic reactions towards Le^a synthesis were run along with a 2-fold serial dilution of the FUT8-labeled antibody glycan G0 (G0f) (FIG. 22). Le^a was synthesized from G0f sequentially via the steps of galactosylation by B3GalT2, sialylation by ST3Gal3 and fucosylation by FUT3 (FIG. 22A). Major intermediate products of Le^a synthesis including G1[3]f, A1G1[3]f and A1 G1[3]F1f were observed (FIG. 22B). When the band intensities of the serial dilution of G0f in FIG. 22B were plotted against the masses of the glycan, a response curve with the linear coefficient of 0.9998 was obtained, with the slope of the curve representing the signal to mass ratio (FIG. 22C). The masses of the intermediates of Le^a synthesis were then calculated using the signal to mass ratio. […] In addition, the results also indicate that the sensitivity of the current method for glycan detection is below picomole level.

Setting [6] is: band masses from signal to mass ratio, FIG. 22.

For β-1,4-Galactosyltransferase 1 [B4GalT1], the “Time for the complete conversion of G0 to G2” value in data set [1] (FIG. 21B) amounted to 10 min. Moreover, the “Activity based on reaction completion” value in data set [1] (substrate G0, completed product G2) worked out at 2.3 pmol/min/µg. Moreover, the Relative activity in data set [1] (substrate G0, product G2, normalized to FUT6 on sLe^x synthesis) came to 17.

B1: FUT7: α-3 fucosyltransferase strictly active on sialyllactosamine (protein, UniProt Q11130 1-342, looked up)
Alpha-(1,3)-fucosyltransferase …: MNNAGHGPTRRLRGLGVLAGVALLAALWLLWLLGSAPRGTPAPQPTITILVWHWPFTDQPPELPSDTCTRYGIARCHLSANRSLLASADAVVFHHRELQTRRSHLPLAQRPRGQPWVWASMESPSHTHGLSHLRGIFNWVLSYRRDSDIFVPYGRLEPHWGPSPPLPAKSRVAAWVVSNFQERQLRARLYRQLAPHLRVDVFGRANGRPLCASCLVPTVAQYRFYLSFENSQHRDYITEKFWRNALVAGTVPVVLGPPRATYEAFVPADAFVHVDDFGSARELAAFLTGMNESRYQRFFAWRDRLRVRLFTDWRERFCAICDRYPHLPRSQVYEDLEGWFQA
On to B1, for which the “Activity based on reaction completion” value in data set [2] came to 0.38 pmol/min/µg. The Relative activity in data set [2] (product sLe^x, normalized to FUT6 on sLe^x synthesis) came out at 2.8. In addition, in data set [3], the “Which of fetuin and asialofetuin the fucosyltransferase labeled” value is “labeled fetuin”.

B2: FUT6: recombinant α-3 fucosyltransferase active on lactosamine and sialyllactosamine (protein, UniProt P51993 1-359, looked up)
4-galactosyl-N-acetylglucosami …: MDPLGPAKPQWSWRCCLTTLLFQLLMAVCFFSYLRVSQDDPTVYPNGSRFPDSTGTPAHSIPLILLWTWPFNKPIALPRCSEMVPGTADCNITADRKVYPQADAVIVHHREVMYNPSAQLPRSPRRQGQRWIWFSMESPSHCWQLKAMDGYFNLTMSYRSDSDIFTPYGWLEPWSGQPAHPPLNLSAKTELVAWAVSNWGPNSARVRYYQSLQAHLKVDVYGRSHKPLPQGTMMETLSRYKFYLAFENSLHPDYITEKLWRNALEAWAVPVVLGPSRSNYERFLPPDAFIHVDDFQSPKDLARYLQELDKDHARYLSYFRWRETLRPRSFSWALAFCKACWKLQEESRYQTRGIAAWFT
As to B2, the results for the “Activity based on reaction completion” value in data set [4] and in data set [2] were 2.3 pmol/min/µg and 13.5 pmol/min/µg, respectively. Also, the “Which of fetuin and asialofetuin the fucosyltransferase labeled” value in data set [3] was “labeled both fetuin and asialofetuin”.

B3: B3GalT2: galactosyltransferase used for galactosylation in Le^a synthesis (protein, UniProt O43825 1-422, looked up)
Beta-1,3-galactosyltransferase …: MLQWRRRHCCFAKMTWNAKRSLFRTHLIGVLSLVFLFAMFLFFNHHDWLPGRAGFKENPVTYTFRGFRSTKSETNHSSLRNIWKETVPQTLRPQTATNSNNTDLSPQGVTGLENTLSANGSIYNEKGTGHPNSYHFKYIINEPEKCQEKSPFLILLIAAEPGQIEARRAIRQTWGNESLAPGIQITRIFLLGLSIKLNGYLQRAILEESRQYHDIIQQEYLDTYYNLTIKTLMGMNWVATYCPHIPYVMKTDSDMFVNTEYLINKLLKPDLPPRHNYFTGYLMRGYAPNRNKDSKWYMPPDLYPSERYPVFCSGTGYVFSGDLAEKIFKVSLGIRRLHLEDVYVGICLAKLRIDPVPPPNEFVFNHWRVSYSSCKYSHLITSHQFQPSELIKYWNHLQQNKHNACANAAKEKAGRYRHRKLH
For B3, in data set [5] (setting [6]), the “Share of G0f converted to G1[3]f” value is on record as 53% and the “Share of G0f converted to G2[3]f” value was determined as 9%.

B4: FUT3: fucosyltransferase used for fucosylation in Le^a synthesis (protein, UniProt P21217 1-361, looked up)
3-galactosyl-N-acetylglucosami …: MDPLGAAKPQWPWRRCLAALLFQLLVAVCFFSYLRVSRDDATGSPRAPSGSSRQDTTPTRPTLLILLRTWPFHIPVALSRCSEMVPGTADCHITADRKVYPQADMVIVHHWDIMSNPKSRLPPSPRPQGQRWIWFNLEPPPNCQHLEALDRYFNLTMSYRSDSDIFTPYGWLEPWSGQPAHPPLNLSAKTELVAWAVSNWKPDSARVRYYQSLQAHLKVDVYGRSHKPLPKGTMMETLSRYKFYLAFENSLHPDYITEKLWRNALEAWAVPVVLGPSRSNYERFLPPDAFIHVDDFQSPKDLARYLQELDKDHARYLSYFRWRETLRPRSFSWALDFCKACWKLQQESRYQTVRSIAAWFT
On to B4, for which the “Completion of reaction in Le^a synthesis” value in data set [5] is on record as “almost completed”.

B5: ST3Gal3: recombinant human sialyltransferase that generates α2,3-sialylated N-glycans (protein, UniProt Q11203 1-375, looked up)
CMP-N-acetylneuraminate-beta-1 …: MGLLVFVRNLLLALCLFLVLGFLYYSAWKLHLLQWEEDSNSVVLSFDSAGQTLGSEYDRLGFLLNLDSKLPAELATKYANFSEGACKPGYASALMTAIFPRFSKPAPMFLDDSFRKWARIREFVPPFGIKGQDNLIKAILSVTKEYRLTPALDSLRCRRCIIVGNGGVLANKSLGSRIDDYDIVVRLNSAPVKGFEKDVGSKTTLRITYPEGAMQRPEQYERDSLFVLAGFKWQDFKWLKYIVYKERVSASDGFWKSVATRVPKEPPEIRILNPYFIQEAAFTLIGLPFNNGLMGRGNIPTLGSVAVTMALHGCDEVAVAGFGYDMSTPNAPLHYYETVRMAAIKESWTHNIQREKEFLRKLVKARVITDLSSGI
Consider B5, for which, in data set [5], the “Completion of reaction in Le^a synthesis” value is “almost completed”.
